In the DeepSol protein solubility set:

experiment: soluble on expression in E. coli; label from the status in PepcDB or PDB records

**Q.** Which “soluble on expression in E. coli” value does the source give for “MGSDKIHHHHHHAAPGDLQEKLAALKGISGIEKLQSDYYPEKYVVRITQQVDPKDPAAGTFTQRVIVGHVGYDRPTIIVTEGYGAAYALNPKYQEELSKLLNANLVFVEYRYFLESTPEPKNWDYLTAENSAYDLHNVRNTFKQIYPGKWISTGISKGGQTTMLYRAFFPDDVDFSVPYVGPLCKGVEDGRHEPFLRKVGTKAEREKIQDFQLEVLKRKSDMLPLLESYCKNKNLTFRIPMPEVLDYCVLEYSFALWQWGTSVSTIPSKSADDQALFDHLMEISGPDYFAENQPNISFFVQAARELGYYGYDVKPFKKYLTIDSAHGYLNRIMLPEELVGKVDFRPALYHKIYNFLKDNDPKMIFIYGEIDPWSAAMVPAFKGKKNEQIYIQPRGSHRARIGNMPEDMKERILTQMNKWLAE” here?
**A.** Its value is “not soluble”.

**Q.** With “MVSIIIPIYNVQDYINDCLYSVYTQTYSEIEVILVNDCTPDNSMLIAHSNIEKLKKRFNVKIIDHKSNKGLSAARNSGVKEATGEWVYFLDSDDEITPDCIECFVRLAERYLSVDFIVGGIRVIGRNISYRLTTSEYVIGNDNILKCYISGMWYEMAWNKLIRKEYFVSNNLWFKEGLLHEDQLFSYQLATTALTMATVNKPTYIYKMRMSGAITSSNGRKNFDSFICILEYMVYSVMQKYSTSSVTLEYAQIIRFSYSILLSLYGKHNLTEMEVVNYELKVDRICRIVTFYKCKLPVPIQIKLTIIKLPQTMRKVLLKWHNKKIQKKLEHHHHHH” as the sequence, how does the “soluble on expression in E. coli” value read?
**A.** Its value is “soluble”.

**Q.** Which “soluble on expression in E. coli” value does the source give for “CSKNRKAKAKPVTRGTGAGSRPRGQNKERPPPVPNPDYEPIRKGQRDLYSGLNQRAV” here?
**A.** The value was “soluble”.

**Q.** For “GPGSMKRHGVRLRRSIKETAVTIGCDEAGRGPLAGPVVGAAVSRIPVSSFNNEFDQLYEAPEQFQIFDSKSVSERQRDLVFAMITGHVDFFDIASCKKFVVHHCAGDEATSLTLSSKKLDSHVKLSKLPFKKLLSMQTPYLITYHGYNSAGNYVYFWSIGIANHTYIDEYNIYNASMNTMHRSAQSIWHMLSDARFSHEAAPRPRSSSIAQYLFSRFCTAANHDNEKRYQVPHHLELLKGATEYFDFEPIQPPLVLIDGHAVPGPSYDYFTSVRIGGDVQPIIEGDKRSLSIAAASCLAKVTRDELMNYIDALYPGYGFRDNKGYPVEQHMKYVAKNGLCPIHRKTYRPCRTVLEKGLQRK”, which “soluble on expression in E. coli” value is on record?
**A.** Its value is “not soluble”.

**Q.** With “MAHHHHHHMSSQAQQRAPAYAPRDTHAERLAAADREAAARRDSSTNWTWYPEYHLAPYMGWMNDPTGLVHFRDHYHVFYQYHPYSAEWGPMHWGHMTSEDLVHWQHEKVALAPGDACDRNGCFSGTAVVHEDRMYVFYTGHFALDAATPSNPDAIFEQQCVAVSSDGVNFEKLGAVVRPPPGYVHFRDPKVWQQDGRWWMVCGARDVTKDLGQLLLFTTEDLLKWDDTNWQVLGMTEDKNVFMWECPDYFTIGSREDMKLLLFCPQGKKASEYNYRNRFQNGYTVGQWMPGGPWTVQREFRELDRGHDFYAAQTFLAADGQRRMLMAWCNMWESPMPTKQYGWSGCLTLPRELSYNEATGQLCMLPARELVGLRTPEMMIVPSLLVENNSDAQILENCTAYELDIAFNMETSTAEKYGLWLGSGAELYVDAQSKRLVLNRHYPQHMLSGYRSCELPIGLLLQLHVFIDRSSIEVFVNNGEATFSSRVFPDEGDRALRVFSVNGTADMVGGTMWKLKATVRH” as the sequence, how does the “soluble on expression in E. coli” value read?
**A.** The value was “not soluble”.

**Q.** For “MGHHHHHHENLYFQSHLYFQSHMTDCEFGYIYRLAQDYLQCVLQIPQPGSGPSKTSRVLQNVAFSVQKEVEKNLKSCLDNVNVVSVDTARTLFNQVMEKEFEDGIINWGRIVTIFAFEGILIKKLLRQQIAPDVDTYKEISYFVAEFIMNNTGEWIRQNGGWENGFVKKFEPK”, which “soluble on expression in E. coli” value is on record?
**A.** Its value is “soluble”.

**Q.** With “MKLVRPQKISDQVLSVLEERIAEGVYAEGGKIPPERVLAEEFGVSRPSVRSALNVLVARQVLEARQGDGYYVSVKPQQDFLQSWQELLGKHSNWEQDVFDFSCHIEGCMAALAAERRTDADLKRIGFWLEKFEEACESGNLEHQSEADVSFHQTIADAAHNLLFSHLSGGLLKMLYRQTRSSLIYLNQEEDPRPKLMAQHRVLYEAISNRRPGEASEAAKAHLNYVASSILKDREYQSRNRHADTLAQNDLKRVQDWAV” as the sequence, how does the “soluble on expression in E. coli” value read?
**A.** The value was “soluble”.

**Q.** For “GHMDVGERSSDQGTTVLTEAQRIDWMRLIRAENVGPRTFRSLINHFGSARAALERLPELARRGGAARAGRIPSEDEARREIEAGRRIGVELVAPGETGYPTRLATIDDAPPLLGVHALPEALAVMARPMIAIVGSRNASGAGLKFAGQLAADLGAAGFVVISGLARGIDQAAHRASLSSGTVAVLAGGHDKIYPAEHEDLLLDIIQTRGAAISEMPLGHVPRGKDFPRRNRLISGASVGVAVIEAAYRSGSLITARRAADQGREVFAVPGSPLDPRAAGTNDLIKQGATLITSASDIVEAVASILERPIELPGREPEHAPPEGEPDTGDRTRILALLGPSPVGIDDLIRLSGISPAVVRTILLELELAGRLERHGGSLVSLS”, which “soluble on expression in E. coli” value is on record?
**A.** The value was “soluble”.

**Q.** With “MSLTTSKTRKSGVAMTEKLELDPARTAIVLIEYQNEFTSDGGVLHGAVADVMQHTGMLANTVAVVDAARQAGVPIMHAPITFAEGYGELTRHPYGILKGVVDGKAFVKGTWGAAIVDELAPVNGDIVIEGKRGLDTFASTNLDFILRSKGVDTIVLGGFLTNCCVESTMRTGYERGFRVITLTDCVAATSQEEHNNAISYDFPMFSVPMTSADVIAALEGHHHHHH” as the sequence, how does the “soluble on expression in E. coli” value read?
**A.** The value was “soluble”.

**Q.** For “MMSLLAVGLVFGLAACSGTSDAKGKIVISGKKFTEQVILTHLLAEYVKANTDLDVEVKDSLGGAFMLQQAIENGDVDMYVEYTGTGYLNILKQPYDPAKTPEQIYNETKKLYKEKYNIAWLKPLGFNNTYALAMRRDLAEKLGVKTYSDLAKHSSSLTFGSDAEFFERSDGYDGLVDTYGFQFKKKVTIDPDLQYEAAKNSEIDVITAYTTDARIKKYDLVVLKDDKQYFPPYHAVPIIRQEVLDANPGLEKKLNKLANILTDEKMMELNGQVNLEGKQPREVALDFLKAEGLID”, which “soluble on expression in E. coli” value is on record?
**A.** The value was “not soluble”.

**Q.** For “MTDYPSIFEPLTVKRMTIKNRVIMPPMGTNLAGLNGEFLEEHMNYYEQRAKGGTGLITIENACVDFPYGTNGTTQLRIDNDQYIPGFYKLTERLHKHGTCVSIQINHAGASAYPARLNGLQPVSASDIPSKKGGTVPRPLTVEEIYEIVNKYGDAARRAQQAGFDAVEIHGGHSYLLCQFLSPLYNKRTDEFGGTPENRARIVKLILEKVRAEVGPFFPIVLRFSADEFTEGGNHLEDILELLDYCQEEADILNVSAAINDNLYLQIDQMNLEDGWRSYLAKAVKDKFNKPTITSGNIRSPKAAEKILSEGYADLLAMGRGLIAEPNWVNKVATGQEDMLRKCISCNIGCADHRISKSKPIRCTVNPDIIHEDKYKETKVTRPTNVVVIGGGTAGLEAACTAAEVGCNTTLIEANEQTGGLARAIANLPDKSRIADFPNYLANRAEKLTNLKVITGTKADTALIDTFNPDVVVNATGSKPLLPPIKGLLDVIDKEGSKVHSIFGLISNIDDFTEFSNKKVAVIGGGAVGLDVVEYFSERGSDVTIVEMMPLLGKDLDMITRLSMMDIIEKNHVDVQTETALTEVAADHFKVKHDGVDAEIPFDYGFVCLGMRPERPLMEELAAYGKEKQIEIVNIGDSAATRKILEGVREGRNILTTLEKIGSL”, which “soluble on expression in E. coli” value is on record?
**A.** Its value is “not soluble”.

**Q.** With “MSLADSSYYDEDYRPQYHFTPEANWMNDPNGMVYYAGEYHLFYQYHPYGLQWGPMHWGHAVSKDLVTWEHLPVALYPDEKGTIFSGSAVVDKNNTSGFQTGKEKPLVAIYTQDREGHQVQSIAYSNDKGRTWTKYAGNPVIPNPGKKDFRDPKVFWYEKEKKWVMVLAAGDRILIYTSKNLKQWTYASEFGQDQGSHGGVWECPDLFELPVDGNPNQKKWVMQVSVGNGAVSGGSGMQYFVGDFDGTHFKNENPPNKVLWTDYGRDFYAAVSWSDIPSTDSRRLWLGWMSNWQYANDVPTSPWRSATSIPRELKLKAFTEGVRVVQTPVKELETIRGTSKKWKNLTISPASHNVLAGQSGDAYEINAEFKVSPGSAAEFGFKVRTGENQFTKVGYDRRNAKLFVDRSESGNDTFNPAFNTGKETAPLKPVNGKVKLRIFVDRSSVEVFGNDGKQVITDIILPDRSSKGLELYAANGGVKVKSLTIHPLKKVWGTTPFMSNMTGWTTVNGTWADTIEGKQGRSDGDSFILSSASGSDFTYESDITIKDGNGRGAGALMFRSDKDAKNGYLANVDAKHDLVKFFKFENGAASVIAEYKTPIDVNKKYHLKTEAEGDRFKIYLDDRLVIDAHDSVFSEGQFGLNVWDATAVFQNVTKESEGHHHHHH” as the sequence, how does the “soluble on expression in E. coli” value read?
**A.** Its value is “soluble”.

**Q.** Which “soluble on expression in E. coli” value does the source give for “MGSDKIHHHHHHVRIAILSQGPQLYSTKRLVEAALARGHEVKVINPLKCYMNINMTKPSIHMAGKDLGHFDAVIPRIGASVTFYGSAVLRQFEMMGVYAVNGSIGIARSRDKLRSMQLLSRQGIGLPITGFANKPSDIPDLIDMVGGAPLVVKLLEGTQGIGVVLAETRKAAESVLEAFMGLKANIMVQEYIAEAQGADIRCFVLGDKVIAAMKRQAKPGEFRSNLHRGGSATLVKLTPEERSVALRAAKTMGLNIAGVDLLRSNHGPVVMEVNSSPGLEGIEKATQKDVADAIICFMEKNANKSIKSAQ” here?
**A.** Its value is “not soluble”.

**Q.** With “QSKTATVFLHGYNGGAYSTNYLIRKAEKAGAAQKALVVHVYKNGVMAFKGYWQKSIKNPMVQVVFQDNHASQKAQIYWLHQVLVQLKAKYGVKAYNAVGHSLGANDIVNQALKYGHDKRLPTLNKIVTIGGPFDGLTGFLSTQTEATVRRLDVKPSRFTKHFSEMLKYRHNFPDNVKLLNVYGDTNTGYNNDGFVGVASARSIRYLLRGKLTQYQEAFYSGEQAAHCALNQNPSVAHKMIAFLW” as the sequence, how does the “soluble on expression in E. coli” value read?
**A.** The value was “not soluble”.

**Q.** With “MVAAGDINVRVTSMDSELEFAIQSSTTGKQLFDQVVKTIGLREIWYFGLQYTDNKGFPTWLKLNKKVLSQDVKKDPTLVFKFRAKFYPEDVAEEIIQDVTMRLFYLQVKDGILSDEIYCPPETSVLLASYAMQAKYGDYVPETHVAGCLTADRLLPQRVLGQFKLNSEEWERRIMTWWADHRATTREQAMLEYLKIAQDLEMYGVNYFEIRNKKGTDLYLGVDALGLNIYDKADRLSPKVGFPWSEIRNISFNDKKFVIKPIDKKAHDFVFYAPRLRINKRILALCMGNHELYMRRRKPDTIEVQQMKQQAREDRALKIAEQEKLTREMSAREEAEQRQRDAEKRMAQMQEDMERARLELAEAHNTIHSLEAQLKQLQLAKQALEQKEYELRELTAQLQSEKAMSDGERRHLRDQVDAREREVFSMREEVERQTTVTRQLQTQIHSQQHTQHYSNSHHVSNGHAHDETATDDEDNGATELTNDADQNVPQHELERVTAAEKNIQIKNKLDMLTRELDSVKDQNAVTDYDVLHMENKKAGRDKYKTLRQIRGGNTKRRIDQYENM” as the sequence, how does the “soluble on expression in E. coli” value read?
**A.** Its value is “not soluble”.

**Q.** Which “soluble on expression in E. coli” value does the source give for “MAHHHHHHMWTAPPSLRTVRPIFLPLNVVANSTSSLLLHPGQLDLKHVEGYMTSKKWLSKLKCCGDNPLTVDEMKALVLMFLKKISDTYVDDQAKWMNKMRSSQEEQGKALEEAMNEYEKNILFNHALKEQQLLHNNKKISEWNETIENAYEAQQEVLRQFEAKKREDKKKMALEKNNELIIAKDYIDKIKEAATDSRYANSKCFVYPASSAPCGACTSAGAIAPYRRFKEPRRKKQYSLCL” here?
**A.** The value was “not soluble”.

**Q.** With “MNTDTFMCSSDEKQTRSPLSLYSEYQRMEIEFRAPHIMPTSHWHGQVEVNVPFDGDVEYLINNEKVNINQGHITLFWACTPHQLTDTGTCQSMAIFNLPMHLFLSWPLDKDLINHVTHGMVIKSLATQQLSPFEVRRWQQELNSPNEQIRQLAIDEIGLMLKRFSLSGWEPILVNKTSRTHKNSVSRHAQFYVSQMLGFIAENYDQALTINDVAEHVKLNANYAMGIFQRVMQLTMKQYITAMRINHVRALLSDTDKSILDIALTAGFRSSSRFYSTFGKYVGMSPQQYRKLSQQRRQTFPG” as the sequence, how does the “soluble on expression in E. coli” value read?
**A.** Its value is “soluble”.
